B1: Glucose-1-phosphate adenylyltransferase large subunit 1 (Solanum tuberosum (Potato)), Q00081 (parent)
chain: NKIKPGVAYSVITTENDTQTVFVDMPRLERRRANPKDVAAVILGGGEGTKLFPLTSRTATPAVPVGGCYRLIDIPMSNCINSAINKIFVLTQYNSAPLNRHIARTYFGNGVSFGDGFVEVLAATQTPGEAGKKWFQGTADAVRKFIWVFEDAKNKNIENIVVLSGDHLYRMDYMELVQNHIDRNADITLSCAPAEDSRASDFGLVKIDSRGRVVQFAEKPKGFDLKAMQVDTTLVGLSPQDAKKSPYIASMGVYVFKTDVLLKLLKWSYPTSNDFGSEIIPAAIDDYNVQAYIFKDYWEDIGTIKSFYNASLALTQEFPEFQFYDPKTPFYTSPRFLPPTKIDNCKIKDAIISHGCFLRDCSVEHSIVGERSRLDCGVELKDTFMMGADYYQTESEIASLLAEGKVPIGIGENTKIRKCIIDKNAKIGKNVSIINKDGVQEADRPEEGFYIRSGIIIILEKATIRDGTVI
partner: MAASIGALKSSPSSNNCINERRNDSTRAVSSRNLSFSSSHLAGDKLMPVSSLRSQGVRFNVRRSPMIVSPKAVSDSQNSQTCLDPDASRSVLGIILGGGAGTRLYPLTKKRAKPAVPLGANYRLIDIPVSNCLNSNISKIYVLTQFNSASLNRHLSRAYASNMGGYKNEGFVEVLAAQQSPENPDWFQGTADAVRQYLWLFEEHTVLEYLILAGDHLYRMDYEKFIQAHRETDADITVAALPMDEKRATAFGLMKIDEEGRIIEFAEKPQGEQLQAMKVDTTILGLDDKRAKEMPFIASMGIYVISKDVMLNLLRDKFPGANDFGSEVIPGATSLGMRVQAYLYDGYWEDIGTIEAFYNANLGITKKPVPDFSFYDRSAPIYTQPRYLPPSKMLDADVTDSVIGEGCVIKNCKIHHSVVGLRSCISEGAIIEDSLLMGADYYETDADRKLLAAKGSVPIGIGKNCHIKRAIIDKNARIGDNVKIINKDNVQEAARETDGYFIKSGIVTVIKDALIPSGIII

Variants of: B1
Conditions: with glgs_soltu glgs

Effect of a mutation on the interaction, disrupting interaction:
NKIKPGVAYSVITTENDTQTVFVDMPRLERRRANPKDVAAVILGGGEGTKLFPLTSRTATPAVPVGGCYRLIDIPMSNCINSAINKIFVLTQYNSAPLNAHIARTYFGNGVSFGDGFVEVLAATQTPGEAGKKWFQGTADAVRKFIWVFEDAKNKNIENIVVLSGDHLYRMDYMELVQNHIDRNADITLSCAPAEDSRASDFGLVKIDSRGRVVQFAEKPKGFDLKAMQVDTTLVGLSPQDAKKSPYIASMGVYVFKTDVLLKLLKWSYPTSNDFGSEIIPAAIDDYNVQAYIFKDYWEDIGTIKSFYNASLALTQEFPEFQFYDPKTPFYTSPRFLPPTKIDNCKIKDAIISHGCFLRDCSVEHSIVGERSRLDCGVELKDTFMMGADYYQTESEIASLLAEGKVPIGIGENTKIRKCIIDKNAKIGKNVSIINKDGVQEADRPEEGFYIRSGIIIILEKATIRDGTVI [R100A]
NKIKPGVAYSVITTENDTQTVFVDMPRLERRRANPKDVAAVILGGGEGTKLFPLTSRTATPAVPVGGCYRLIDIPMSNCINSAINKIFVLTQYNSAPLNRHIARTYFGNGVSFGDGFVEVLAATQTPGEAGKKWFQGTADAVRKFIWVFEDAKNKNIENIVVLSGDHLYRMDYMELVQNHIDRNADITLSCAPAEDSRASDFGLVKIDSRGRVVQFAEKPKGFDLKAMQVDTTLVGLSPQDAKKSPYIASMGVYVFKTDVLLKLLKWSYPTSNDFGSEIIPAAIDDYNVQAYIFKDYWEDIGTIKSFYNASLALTQEFPEFQFYDPKTPFYTSPRFLPATKIDNCKIKDAIISHGCFLRDCSVEHSIVGERSRLDCGVELKDTFMMGADYYQTESEIASLLAEGKVPIGIGENTKIRKCIIDKNAKIGKNVSIINKDGVQEADRPEEGFYIRSGIIIILEKATIRDGTVI [P339A]
NKIKPGVAYSVITTENDTQTVFVDMPRLERRRANPKDVAAVILGGGEGTKLFPLTSRTATPAVPVGGCYRLIDIPMSNCINSAINKIFVLTQYNSAPLNRHIARTYFGNGVSFGDGFVEVLAATQTPGEAGKKWFQGTADAVRKFIWVFEDAKNKNIENIVVLSGDHLYRMDYMELVQNHIDRNADITLSCAPAEDSRASDFGLVKIDSRGRVVQFAEKPKGFDLKAMQVDTTLVGLSPQDAKKSPYIASMGVYVFKTDVLLKLLKWSYPTSNDFGSEIIPAAIDDYNVQAYIFKDYWEDIGTIKSFYNASLALTQEFPEFQFYDPKTPFYTSPRFLPPTKADNCKIKDAIISHGCFLRDCSVEHSIVGERSRLDCGVELKDTFMMGADYYQTESEIASLLAEGKVPIGIGENTKIRKCIIDKNAKIGKNVSIINKDGVQEADRPEEGFYIRSGIIIILEKATIRDGTVI [I342A]
NKIKPGVAYSVITTENDTQTVFVDMPRLERRRANPKDVAAVILGGGEGTKLFPLTSRTATPAVPVGGCYRLIDIPMSNCINSAINKIFVLTQYNSAPLNRHIARTYFGNGVSFGDGFVEVLAATQTPGEAGKKWFQGTADAVRKFIWVFEDAKNKNIENIVVLSGDHLYRMDYMELVQNHIDRNADITLSCAPAEDSRASDFGLVKIDSRGRVVQFAEKPKGFDLKAMQVDTTLVGLSPQDAKKSPYIASMGVYVFKTDVLLKLLKWSYPTSNDFGSEIIPAAIDDYNVQAYIFKDYWEDIGTIKSFYNASLALTQEFPEFQFYDPKTPFYTSPRFLPPTKIDNCKAKDAIISHGCFLRDCSVEHSIVGERSRLDCGVELKDTFMMGADYYQTESEIASLLAEGKVPIGIGENTKIRKCIIDKNAKIGKNVSIINKDGVQEADRPEEGFYIRSGIIIILEKATIRDGTVI [I347A]
NKIKPGVAYSVITTENDTQTVFVDMPRLERRRANPKDVAAVILGGGEGTKLFPLTSRTATPAVPVGGCYRLIDIPMSNCINSAINKIFVLTQYNSAPLNRHIARTYFGNGVSFGDGFVEVLAATQTPGEAGKKWFQGTADAVRKFIWVFEDAKNKNIENIVVLSGDHLYRMDYMELVQNHIDRNADITLSCAPAEDSRASDFGLVKIDSRGRVVQFAEKPKGFDLKAMQVDTTLVGLSPQDAKKSPYIASMGVYVFKTDVLLKLLKWSYPTSNDFGSEIIPAAIDDYNVQAYIFKDYWEDIGTIKSFYNASLALTQEFPEFQFYDPKTPFYTSPRFLPPTKIDNCKIKDAAASHGCFLRDCSVEHSIVGERSRLDCGVELKDTFMMGADYYQTESEIASLLAEGKVPIGIGENTKIRKCIIDKNAKIGKNVSIINKDGVQEADRPEEGFYIRSGIIIILEKATIRDGTVI [I351A;I352A]
